We go through one sequence from publication PMC9368917.

This data set deals with T1, 3xFLAG-STM0347 (Salmonella enterica serovar Typhimurium (strain not stated in the given text)) (UniProt H9L417).
T1 sequence: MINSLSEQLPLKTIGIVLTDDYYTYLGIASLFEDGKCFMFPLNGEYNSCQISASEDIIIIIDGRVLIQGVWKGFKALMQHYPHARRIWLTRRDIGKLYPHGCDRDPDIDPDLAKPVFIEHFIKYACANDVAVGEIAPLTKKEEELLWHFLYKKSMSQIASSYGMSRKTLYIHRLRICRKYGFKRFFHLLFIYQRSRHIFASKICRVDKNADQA
Kind of data set: EMSA. As to conditions: 10 mM Tris-HCl pH 8.3, 50 mM KCl, 1 mM MgCl2, 0.5 mM DTT, 0.5 mM EDTA, 50 ug/mL BSA, 0.2% glycerol; room temperature 20 min; 6% native PAGE in 1x TAE in ice ….

In the case of “CATCGCTCAAAACACTACCAGACACAGTATTCACCTGGAAAGGCTTTTTAATCAAAATGTTAGATGTAAGCAATTACGGACAGAAAAAATAGTAAAGTTTATGCCTCAAGTGTCGATAACCTGGATGACACAGGTAAGCCTGGCATAACATTGGTTATCAAAAACCTTCCAAAAGGAAAATTTTATGGCACAAGTAATCAACACTAACAGTCTGTCGCTGCTGACCCAGAATAACCTGAACAAATCCCAGTCCGCACTGGGCACCGCTATCGAGCGTCTGTCTTCTGGTCTGCGTATCAA (double strand) [fljB promoter fragment]”, the binding entry is “no binding”.
